# Reference: paper doi:10.1101/2023.06.19.545293 (2023)
# T1: ZnF domain of A. thaliana SPL5 (Ser60-Leu127) (A. thaliana, UniProt Q9S758 60-127)
# T1 chain: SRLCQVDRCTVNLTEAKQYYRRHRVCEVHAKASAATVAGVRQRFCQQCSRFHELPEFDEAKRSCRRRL
# B1: SAP05 (mature, Ala33-Lys135) of Aster Yellows phytoplasma strain Witches Broom (natural protein)
# chain: APNEEFVGDMRIVNVNLSNIDILKKHETFKKYFDFTLTGPRYNGNIAEFAMIWKIKNPPLNLLGVFFDDGTRDDEDDKYILEELKQIGNGAKNMYIFWQYEQK
# Assays:
# [1] = molecular target: T1, ZnF domain of A. thaliana SPL5 …; assay: ITC; 25 °C, repeat 1
# [2] = molecular target: T1, ZnF domain of A. thaliana SPL5 …; assay: ITC; 25 °C, repeat 2
binder,measurement,setting,value
B1,Kd,[1],510 nM
same,Kd,[2],388 nM
